What was measured:
[1] = system: T1, LxVPc1 peptide (synthetic peptide with the LxVP sequence of NFATc1)
T1 sequence: DQYLAVPQHPYQWAK

[2] = system: mutLxVPc1 peptide (LxVP motif from NFATc1 with the Leucine, Valine and Proline residues replaced by Alanine)

With “Calcineurin of the Biomol Green Calcineurin assay kit” the “phosphatase activity of CN on the RII phosphopeptide substrate” value [1] was “severely blocked in vitro the phosphatase activity of CN on its physiological substrate” and the “phosphatase activity of CN on the RII phosphopeptide substrate” value [2] was “(but not its mutant version)”.
